The values that follow come from patent publication US20180362668.

Data set [1] concerns the target Fc protein chain B with D356C + T366S + L368A + Y407V + F405K. Description: non-reducing SDS-PAGE of Protein A-purified co-transfection product; chain A:chain B vectors 4:1.
Data set [2] has the same target. Description: non-reducing SDS-PAGE of Protein A-purified co-transfection product; chain A:chain B vectors 1:4.
The target of data set [3] is T1, VhH-Fc fusion protein chain B with D356C + T366S + L368A + Y407V + F405K. The data set can be described thus: non-reducing SDS-PAGE densitometry of Protein A-purified co-transfection product; chain A:chain B vectors 1:4.
Data set [4] addresses T1, VhH-Fc fusion protein chain B with …. Description: non-reducing SDS-PAGE densitometry of Protein A-purified co-transfection product; chain A:chain B vectors 4:1.
The target of data set [5] is T2, VhH-Fc fusion protein chain B with T366S + L368G + Y407A + F405K. The data set can be described thus: non-reducing SDS-PAGE densitometry of Protein A-purified co-transfection product; chain A:chain B vectors 1:4.
Data set [6] deals with T2, VhH-Fc fusion protein chain B with …. Description: non-reducing SDS-PAGE densitometry of Protein A-purified co-transfection product; chain A:chain B vectors 4:1.
For data set [7], the target named is T3, VhH-Fc fusion protein chain B with T366S + L368A + Y407V + D399S + F405K. The data set can be described thus: non-reducing SDS-PAGE densitometry of Protein A-purified co-transfection product; chain A:chain B vectors 1:4.
Data set [8] deals with T3, VhH-Fc fusion protein chain B with …. The data set can be described thus: non-reducing SDS-PAGE densitometry of Protein A-purified co-transfection product; chain A:chain B vectors 1:1.
For data set [9] the target is unchanged. Description: non-reducing SDS-PAGE densitometry of Protein A-purified co-transfection product; chain A:chain B vectors 4:1.

Positions count from the first letter of the chain named. In names and notes the source's numbering stands.

B1: ScFv-Fc fusion protein chain A with Y349C + T366W + K409A (protein)
chain: EVQLLESGGGVVQPGRSLRLSCIASGFTFSSYPMTWVRQAPGKGLEWVASISYDGSYKYKADSMKGRLTISRDNSKNTLYLEMNSLTAEDTAVYYCARTAFFNAYDFWGQGTLVTVSSASTKGPSVGGGGSGGGGSEIVMTQSPATLSVSPGERATLSCRASQSVRSNLAWYQQKPGQAPRLLIYAASTRATGIPARFSGSGSGTEFTLTISSLQSEDFAVYYCQQYNEWFRTSGQGTKVEIKRDKTHTCPPCPAPELLGGPSVFLFPPKPKDTLMISRTPEVTCVVVDVSHENPEVKFNWYVDGVEVHNAKTKPREEQYNSTYRVVSVLTVLHQDWLNGKEYKCKVSNKALPAPIEKTISKAKGQPREPQVCTLPPSRDELTKNQVSLWCLVKGFYPSDIAVEWESNGQPENNYKTTPPVLDSDGSFFLYSALTVDKSRWQQGNVFSCSVMHEALHNHYTQKSLSLSPGK
B1: the ScFv-Fc/Fc heterodimer (%) turned out to be 53% in [1] and 66% in [2]. For the same protein, the results for the ScFv-Fc/VhH-Fc heterodimer (%) in data set [3] and in [4] were 47% and 54%, respectively.

B2: ScFv-Fc fusion protein chain A with T366W + K409A (protein)
chain: B1 chain with C373Y
For the protein B2, the results for the ScFv-Fc/VhH-Fc heterodimer (%) in data set [5] and in [6] were 89% and 52%, respectively.

B3: ScFv-Fc fusion protein chain A with T366W + K409A + K392D (protein)
chain: B1 chain with C373Y, K416D
As for B3, the ScFv-Fc/VhH-Fc heterodimer (%) stood at 73% in data set [7], 80% in [8] and 61% in data set [9].
